This passage reports rate of increase of the fluorescent signal after adding His6-Z GFP 11, rate of increase of the fluorescent signal after adding His6-Z GFP 11, additional hour after the first two minutes and rate of increase of the fluorescent signal after adding His6-Z GFP 11, first two minutes results from publication PMC6342966.

In the test the target is His6-Z_GFP 11 (GFP 11 genetically fused to the C-terminus of the IgG binding Z domain derived from protein A). Kind of test: split reporter (BiFC, NanoBiT); split-GFP fluorescence complementation in solution, 96-well plate, TNG buffer, 225 µM His6-Z_GFP 11 and 0.2 µM GFP 1–10 variant, 25 °C, excitation 488 nm, emission 535 nm, controls without His6-Z_GFP 11 subtracted.

With “GFP 1–10 OPT (non-maturated) (domain or fragment)”, the rate of increase of the fluorescent signal after adding His6-Z GFP 11 amounted to 0.5 a.u./second.

“GFP 1–10^mat (GFP 1–10 with maturated chromophore) (domain or fragment)” displayed a rate of increase of the fluorescent signal after adding His6-Z GFP 11, additional hour after the first two minutes of 6 a.u./sec and a rate of increase of the fluorescent signal after adding His6-Z GFP 11, first two minutes of 83 a.u./sec.
